Source: US20040018957A1, “Crystal structure of a Ras-P13K complex” (priority 2000, published 2004)

B1: V223K: tighter-binding PI3Kγ mutant used for co-crystallisation with Ras (protein, UniProt P48736 1-1102, looked up, variant V223K)
Phosphatidylinositol …: MELENYKQPVVLREDNCRRRRRMKPRSAAASLSSMELIPIEFVLPTSQRKCKSPETALLHVAGHGNVEQMKAQVWLRALETSVAADFYHRLGPHHFLLLYQKKGQWYEIYDKYQVVQTLDCLRYWKATHRSPGQIHLVQRHPPSEESQAFQRQLTALIGYDVTDVSNVHDDELEFTRRGLVTPRMAEVASRDPKLYAMHPWVTSKPLPEYLWKKIANNCIFIKIHRSTTSQTIKVSPDDTPGAILQSFFTKMAKKKSLMDIPESQSEQDFVLRVCGRDEYLVGETPIKNFQWVRHCLKNGEEIHVVLDTPPDPALDEVRKEEWPLVDDCTGVTGYHEQLTIHGKDHESVFTVSLWDCDRKFRVKIRGIDIPVLPRNTDLTVFVEANIQHGQQVLCQRRTSPKPFTEEVLWNVWLEFSIKIKDLPKGALLNLQIYCGKAPALSSKASAESPSSESKGKVQLLYYVNLLLIDHRFLLRRGEYVLHMWQISGKGEDQGSFNADKLTSATNPDKENSMSISILLDNYCHPIALPKHQPTPDPEGDRVRAEMPNQLRKQLEAIIATDPLNPLTAEDKELLWHFRYESLKHPKAYPKLFSSVKWGQQEIVAKTYQLLARREVWDQSALDVGLTMQLLDCNFSDENVRAIAVQKLESLEDDDVLHYLLQLVQAVKFEPYHDSALARFLLKRGLRNKRIGHFLFWFLRSEIAQSRHYQQRFAVILEAYLRGCGTAMLHDFTQQVQVIEMLQKVTLDIKSLSAEKYDVSSQVISQLKQKLENLQNSQLPESFRVPYDPGLKAGALAIEKCKVMASKKKPLWLEFKCADPTALSNETIGIIFKHGDDLRQDMLILQILRIMESIWETESLDLCLLPYGCISTGDKIGMIEIVKDATTIAKIQQSTVGNTGAFKDEVLNHWLKEKSPTEEKFQAAVERFVYSCAGYCVATFVLGIGDRHNDNIMITETGNLFHIDFGHILGNYKSFLGINKERVPFVLTPDFLFVMGTSGKKTSPHFQKFQDICVKAYLALRHHTNLLIILFSMMLMTGMPQLTSKEDIEYIRDALTVGKNEEDAKKYFLDQIEVCRDKGWTVQFNWFLHLVLGIKQGEKHSA
B2: K255A: PI3Kγ RBD mutant (protein, UniProt P48736 1-1102, looked up, variant K255A)
Phosphatidylinositol …: MELENYKQPVVLREDNCRRRRRMKPRSAAASLSSMELIPIEFVLPTSQRKCKSPETALLHVAGHGNVEQMKAQVWLRALETSVAADFYHRLGPHHFLLLYQKKGQWYEIYDKYQVVQTLDCLRYWKATHRSPGQIHLVQRHPPSEESQAFQRQLTALIGYDVTDVSNVHDDELEFTRRGLVTPRMAEVASRDPKLYAMHPWVTSKPLPEYLWKKIANNCIFIVIHRSTTSQTIKVSPDDTPGAILQSFFTKMAKAKSLMDIPESQSEQDFVLRVCGRDEYLVGETPIKNFQWVRHCLKNGEEIHVVLDTPPDPALDEVRKEEWPLVDDCTGVTGYHEQLTIHGKDHESVFTVSLWDCDRKFRVKIRGIDIPVLPRNTDLTVFVEANIQHGQQVLCQRRTSPKPFTEEVLWNVWLEFSIKIKDLPKGALLNLQIYCGKAPALSSKASAESPSSESKGKVQLLYYVNLLLIDHRFLLRRGEYVLHMWQISGKGEDQGSFNADKLTSATNPDKENSMSISILLDNYCHPIALPKHQPTPDPEGDRVRAEMPNQLRKQLEAIIATDPLNPLTAEDKELLWHFRYESLKHPKAYPKLFSSVKWGQQEIVAKTYQLLARREVWDQSALDVGLTMQLLDCNFSDENVRAIAVQKLESLEDDDVLHYLLQLVQAVKFEPYHDSALARFLLKRGLRNKRIGHFLFWFLRSEIAQSRHYQQRFAVILEAYLRGCGTAMLHDFTQQVQVIEMLQKVTLDIKSLSAEKYDVSSQVISQLKQKLENLQNSQLPESFRVPYDPGLKAGALAIEKCKVMASKKKPLWLEFKCADPTALSNETIGIIFKHGDDLRQDMLILQILRIMESIWETESLDLCLLPYGCISTGDKIGMIEIVKDATTIAKIQQSTVGNTGAFKDEVLNHWLKEKSPTEEKFQAAVERFVYSCAGYCVATFVLGIGDRHNDNIMITETGNLFHIDFGHILGNYKSFLGINKERVPFVLTPDFLFVMGTSGKKTSPHFQKFQDICVKAYLALRHHTNLLIILFSMMLMTGMPQLTSKEDIEYIRDALTVGKNEEDAKKYFLDQIEVCRDKGWTVQFNWFLHLVLGIKQGEKHSA

target: T1, N-Ras.mant-GMPPNP (Homo sapiens, UniProt P01111); assay: Fluorescence anisotropy titration of PI3Kγ 144-1102 into N-Ras.mant-GMPPNP; assay type: binding; details: mutants in the 144-1102 construct, FIG. 2A
T1 construct: fluorescence anisotropy of full length, unmodified N-Ras.mant-GMPPNP
Protocol: Mant-nucleotides were synthesised as described previously (Jameson and Eccleston, 1997). N-Ras and H-Ras mutants were loaded with mant-GMPPNP as in (Moore et al., 1993), gel filtered into running buffer (20 mM Tris pH 7.5, 2 mM MgCl2, 1 mM DTT), and frozen at −80° C. The concentration of Ras.mant-GMPPNP was determined by measuring the absorbance of the mant group at […] with ε=5700 M^−1 cm^−1 (Hiratsuka, 1983). For binding assays, the 144-1102 human PI3Kγ was titrated into a 1 μM solution of fill length, unmodified N-Ras.mant-GMPPNP. Data were collected with SLM 8000 S and ISS PC1 spectrofluorimeters, set up in the T-format and L-format, respectively, with prism polarizers. All measurements were taken at 20° C. with a λex of 366 nm. Both emission PMTs were fitted with 399 nm cutoff filters. Five measurements of each data point were obtained and averaged. Data were fitted to the binding equation.

T1 sequence (P01111 whole entry): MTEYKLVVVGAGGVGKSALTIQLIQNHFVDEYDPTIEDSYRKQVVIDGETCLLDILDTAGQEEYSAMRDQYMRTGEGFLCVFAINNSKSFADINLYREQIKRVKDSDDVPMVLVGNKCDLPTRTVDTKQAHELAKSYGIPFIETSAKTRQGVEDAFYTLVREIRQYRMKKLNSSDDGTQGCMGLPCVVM

Row | effect of PI3Kγ RBD mutation on binding to Ras | Molecule
1 | tighter-binding | B1
2 | eliminate binding | B2

target: N-Ras.GDP (Homo sapiens, UniProt P01111); assay: Binding of PI3Kγ constructs to N-Ras.GDP; details: not given
Sequence (P01111 whole entry): as above

Row | Molecule | binding to N-Ras.GDP
3 | B1 | Neither the wild-type protein, the pseudo wild-type (V327A, see methods), nor the V223K mutant exhibit detectable binding
